Results on three substances are retold here after patent US20240343771A1.

Assay [1] addresses IL-12 receptor (human IL-12Rb1 and IL-12Rb2 on IL-12 bioassay cells) (human) (UniProt P42701).
For assay [2] the target is unchanged. This is another data set of the same source.
The target is the same in assay [3]. This is another data set of the same source.
The target is the same in assay [4]. This is another data set of the same source.

IL-12 receptor (human IL-12Rb1 and IL-12Rb2 on IL-12 bioassay cells) (human), sequence (Q99665 24-862, chain 2 of 2, other chains not shown): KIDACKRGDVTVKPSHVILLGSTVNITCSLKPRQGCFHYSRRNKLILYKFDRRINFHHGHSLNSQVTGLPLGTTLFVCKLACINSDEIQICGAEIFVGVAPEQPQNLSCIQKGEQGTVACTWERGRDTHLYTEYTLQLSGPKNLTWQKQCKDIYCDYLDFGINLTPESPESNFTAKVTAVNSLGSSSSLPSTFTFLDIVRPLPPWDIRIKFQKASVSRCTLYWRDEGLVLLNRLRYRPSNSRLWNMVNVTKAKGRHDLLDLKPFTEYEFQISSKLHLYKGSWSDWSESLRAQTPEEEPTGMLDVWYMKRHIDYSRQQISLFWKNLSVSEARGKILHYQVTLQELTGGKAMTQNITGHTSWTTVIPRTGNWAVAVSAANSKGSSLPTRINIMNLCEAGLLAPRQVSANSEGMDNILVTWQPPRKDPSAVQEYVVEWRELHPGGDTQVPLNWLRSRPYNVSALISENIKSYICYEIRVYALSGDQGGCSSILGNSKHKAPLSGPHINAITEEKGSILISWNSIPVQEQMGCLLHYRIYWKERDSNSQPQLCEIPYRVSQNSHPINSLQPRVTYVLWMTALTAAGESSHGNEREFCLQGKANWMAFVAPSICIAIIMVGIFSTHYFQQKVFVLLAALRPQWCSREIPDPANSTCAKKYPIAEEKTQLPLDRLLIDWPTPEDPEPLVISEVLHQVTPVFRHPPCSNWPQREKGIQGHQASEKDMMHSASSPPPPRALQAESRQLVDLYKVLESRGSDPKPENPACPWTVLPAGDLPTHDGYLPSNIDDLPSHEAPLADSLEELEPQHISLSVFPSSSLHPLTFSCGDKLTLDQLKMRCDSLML
hIL12 + MTSP1, sequence (P29459 23-219): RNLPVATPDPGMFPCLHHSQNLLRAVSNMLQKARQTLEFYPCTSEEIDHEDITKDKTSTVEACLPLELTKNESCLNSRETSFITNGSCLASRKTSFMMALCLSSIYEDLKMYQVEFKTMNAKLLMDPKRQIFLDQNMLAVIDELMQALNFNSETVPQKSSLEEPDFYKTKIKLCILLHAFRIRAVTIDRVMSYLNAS
hIL12 + MTSP1, sequence (P29460 23-328): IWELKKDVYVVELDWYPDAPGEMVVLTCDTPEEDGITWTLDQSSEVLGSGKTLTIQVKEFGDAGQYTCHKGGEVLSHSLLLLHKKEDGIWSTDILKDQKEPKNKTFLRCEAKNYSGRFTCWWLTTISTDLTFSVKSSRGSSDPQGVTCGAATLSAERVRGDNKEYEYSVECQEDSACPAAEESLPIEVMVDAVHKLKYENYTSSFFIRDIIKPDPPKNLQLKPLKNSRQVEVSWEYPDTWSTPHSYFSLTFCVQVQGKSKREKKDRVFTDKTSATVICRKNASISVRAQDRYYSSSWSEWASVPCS

In the case of “hIL12 + MTSP1 (from UniProt P29459;P29460) (ligand)”, the EC50 (read off the curve) (luciferase activity, AU; the assay is not described for this figure) in assay [1] was found to be 0.3 nM.
Take hIL12_His tag (ligand): the EC50 (read off the curve) (luciferase reporter in IL-12 bioassay cells expressing human IL-12Rb1, IL-12Rb2 and STAT4) [all three graphs] in assay [2] was 0.2 nM. In assay [3], this substance showed an EC50 (read off the curve) (luciferase reporter in IL-12 bioassay cells expressing human IL-12Rb1, IL-12Rb2 and STAT4) of 0.2 nM. For the same substance, the EC50 (read off the curve) (luciferase reporter in IL-12 bioassay cells expressing human IL-12Rb1, IL-12Rb2 and STAT4) [left graph] in assay [4] is 0.1 nM.
As to hIL12_His tag + MTSP1 (ligand), the EC50 (read off the curve) (luciferase reporter in IL-12 bioassay cells expressing human IL-12Rb1, IL-12Rb2 and STAT4) [all three graphs] in assay [2] is 0.2 nM. In addition, the EC50 (read off the curve) (luciferase reporter in IL-12 bioassay cells expressing human IL-12Rb1, IL-12Rb2 and STAT4) in assay [3] is 0.2 nM.
